Assay results reported in patent US6008193A, “Methods of using human von Willebrand factor GPIb binding domain polypeptides” (Bio-Technology General Corp., priority 1995, dated 1999).
Values joined by “and” are separate entries in the source; they are usually repeats but may differ in a detail not shown here. Equal entries are not always repeated.

Legend:
[1] = biological target: platelet glycoprotein Ib (GPIb) (human) (UniProt P07359)
[2] = biological target: platelet glycoprotein Ib (GPIb) (human) (UniProt P07359); remark: listed apart in the source
[3] = biological target: platelet glycoprotein Ib (GPIb) (human) (UniProt P07359); remark: listed apart in the source
[4] = biological target: platelet glycoprotein Ib (GPIb) (human) (UniProt P07359); remark: listed apart in the source
[5] = biological target: platelet glycoprotein Ib (GPIb) (human) (UniProt P07359); remark: listed apart in the source
[6] = biological target: platelet glycoprotein Ib (GPIb) (human) (UniProt P07359); remark: listed apart in the source
[7] = biological target: platelet glycoprotein Ib (GPIb) (human) (UniProt P07359); remark: listed apart in the source
[8] = biological target: platelet glycoprotein Ib (GPIb) (human) (UniProt P07359); remark: listed apart in the source
[9] = biological target: platelet glycoprotein Ib (GPIb) (human) (UniProt P07359); remark: listed apart in the source
[10] = biological target: platelet glycoprotein Ib (GPIb) (human) (UniProt P07359); remark: listed apart in the source
[11] = biological target: platelet glycoprotein Ib (GPIb) (human) (UniProt P07359); remark: listed apart in the source
[12] = biological target: platelet glycoprotein Ib (GPIb) (human) (UniProt P07359); assay: platelet adhesion to immobilized VCL on a glass cover slip in a laminar flow cell
[13] = biological target: platelet glycoprotein Ib (GPIb) (human) (UniProt P07359); assay: platelet adhesion to immobilized VCL against immobilized albumin in a laminar flow cell
[14] = test system: rat platelet rich plasma (PRP); assay: vWF-dependent platelet aggregation assay in platelet rich plasma (PRP); assay type: cell-based; conditions: ristocetin up to 5.0 mg/ml, no additional agent
Description: This is a standardized von Willebrand Factor (vWF)-dependent aggregation assay using human or rat platelet rich plasma (PRP). The addition of various concentrations of unfractionated Bothrops jararaca venom (BJV), which includes botrocetin and an additional thrombin-like component, or ristocetin results in an aggregatory response in the absence of any additional agent. Using ristocetin (1.5 mg/ml) as the agonist 43 μg/ml VCL abolished the aggregation of human PRP.

Row | Substance | % Inhibition of Platelet Aggregation (asialo-vWF induced, in PRP) [1] [%] | % Inhibition of Platelet Aggregation (ristocetin induced, washed human platelets with intact vWF) [2] [%] | Dissolution of preformed aggregates (made by RIPA) [3] [µM VCL] | IC50, Asialo vWF induced platelet aggregation [3] [µM VCL] | IC50, Platelet deposition under conditions of flow (everted denuded human umbilical artery, whole human blood) [3] [µM VCL] | IC50, Ristocetin induced platelet aggregation [3] | IC50, Thrombin induced platelet aggregation [3] [µM VCL] | Ristocetin induced platelet aggregation (RIPA) [4] [% inhibition] | platelet adhesion to endothelial cell extracellular matrix (ECM) in a laminar flow cell [5] [% inhibition] | IC50, platelet adhesion to ECM at a shear rate of 1300 s^-1 [6] [nM] | platelet adhesion to immobilized fibrinogen in a laminar flow cell [7] [% inhibition] | platelet adhesion to immobilized collagen (type I) in a laminar flow cell [8] [% inhibition] | platelet adhesion to immobilized vWF in a laminar flow cell [9] [% inhibition] | platelet adhesion to immobilized fibronectin in a laminar flow cell [10] [% inhibition] | platelet deposition on damaged porcine aorta perfused ex vivo with normal human blood [11] [% reduction] | percent coverage of the test surface by platelets [12] [% coverage] | fold of adhesion to albumin [13] [fold] | Aggregation of rat PRP induced by ristocetin [14]
1 | VCL, a vWF GPIb binding domain polypeptide (methionine plus amino acids 504-728 of mature human vWF) (ligand) | 76 | 100 | 0.5 | 0.15 | 1 | 0.2 µM VCL and 0.3 µM VCL | 0.3 | 100 | 70 | 800 | 75 | 50 | 25 | 80 | 60 | < 5 | 10 | –
2 | ristocetin | – | – | – | – | – | – | – | – | – | – | – | – | – | – | – | – | – | did not cause measurable aggregation
